Patent publication US20030099644A1

Molecular target: CD40 on murine bone cells (MLO-Y4 osteocyte cell line, primary osteoblasts, MC3T3, OCT-1 and 2T3 osteoblast cell lines) (mouse) (UniProt P27512)
Experiment: cell-based or functional assay

Chain of UniProt P27512 (P27512 20-289): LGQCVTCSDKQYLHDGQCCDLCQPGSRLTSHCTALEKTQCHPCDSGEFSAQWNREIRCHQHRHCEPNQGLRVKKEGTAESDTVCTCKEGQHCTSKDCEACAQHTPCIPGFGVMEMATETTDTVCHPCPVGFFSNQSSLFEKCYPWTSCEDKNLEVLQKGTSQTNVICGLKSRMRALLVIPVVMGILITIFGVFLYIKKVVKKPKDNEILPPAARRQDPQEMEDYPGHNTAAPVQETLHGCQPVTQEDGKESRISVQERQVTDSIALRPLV

Soluble, trimeric CD40L (ligand)
percent positive cells, Annexin V (MLO-Y4 cells, CD40L alone) (percent positive cells): 11.5 | percent positive cells, Annexin V (MLO-Y4 cells, Dex + CD40L) (percent positive cells): 13.7 | percent positive cells, Annexin V (MLO-Y4 cells, TNF + CD40L) (percent positive cells): 13.9 | percent positive cells, GFP (MLO-Y4 cells, CD40L alone) (percent positive cells): 8.7 | percent positive cells, GFP (MLO-Y4 cells, Dex + CD40L) (percent positive cells): 9.9 | percent positive cells, GFP (MLO-Y4 cells, Etoposide + CD40L) (percent positive cells): 8.4 | percent positive cells, GFP (MLO-Y4 cells, TNF + CD40L) (percent positive cells): 15 | percent positive cells, Trypan Blue (MLO-Y4 cells, CD40L alone) (percent positive cells): 7.2 | percent positive cells, Trypan Blue (MLO-Y4 cells, Dex + CD40L) (percent positive cells): 7.8 | percent positive cells, Trypan Blue (MLO-Y4 cells, Etoposide + CD40L) (percent positive cells): 7.9 | percent positive cells, Trypan Blue (MLO-Y4 cells, TNF + CD40L) (percent positive cells): 12.9
